T1: human prostate stem cell antigen (PSCA) on the cell surface (human, UniProt O43653 12-83)
T1 construct: Expressed on transduced cell lines (22Rv1-hPSCA, RM9-hPSCA, KPC-hPSCA) or endogenously on Capan-1; also called hPSCA; 22Rv1-PSCA
T1 sequence: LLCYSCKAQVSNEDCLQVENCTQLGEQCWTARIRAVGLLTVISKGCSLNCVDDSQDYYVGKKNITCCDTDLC

T2: recombinant human PSCA-mouseFc fusion protein (human, UniProt O43653 12-83, limits assumed)
T2 construct: also called hPSCA-mFc; Recombinant human PSCA mouse Fc fusion protein (UCLA); not shown: mouse Fc
T2 sequence: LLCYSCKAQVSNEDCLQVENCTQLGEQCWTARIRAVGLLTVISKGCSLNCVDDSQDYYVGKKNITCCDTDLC


How the values were obtained:
[1] = target: T3, BSA (UniProt P02769 25-607); assay: ELISA, control wells blocked with BSA
T3 construct: Negative control coating in the ELISA; also called BSA coated wells
T3 sequence (P02769 25-607 limits assumed): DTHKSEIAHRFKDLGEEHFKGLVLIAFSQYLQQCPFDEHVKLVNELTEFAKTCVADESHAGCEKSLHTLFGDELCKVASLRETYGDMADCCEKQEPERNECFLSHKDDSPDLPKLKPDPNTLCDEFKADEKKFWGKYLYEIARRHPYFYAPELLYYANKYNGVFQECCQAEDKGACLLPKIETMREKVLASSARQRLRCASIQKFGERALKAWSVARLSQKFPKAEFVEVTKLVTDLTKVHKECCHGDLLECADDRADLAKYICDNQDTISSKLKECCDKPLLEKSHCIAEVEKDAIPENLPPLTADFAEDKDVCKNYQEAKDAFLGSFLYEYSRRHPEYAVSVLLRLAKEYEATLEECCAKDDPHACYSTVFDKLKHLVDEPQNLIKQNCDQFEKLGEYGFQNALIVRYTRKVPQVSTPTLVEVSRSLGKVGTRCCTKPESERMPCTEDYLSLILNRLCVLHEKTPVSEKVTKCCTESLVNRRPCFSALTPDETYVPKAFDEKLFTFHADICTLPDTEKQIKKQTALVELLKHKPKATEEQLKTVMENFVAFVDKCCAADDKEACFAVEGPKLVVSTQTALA
Experimental: For further confirmation of specific antigen binding ELISA was used to detect binding of A2scFv-Fc2 and A2scFv-Fc2DM to immobilized antigen hPSCA-mFc (FIG. 5). Different concentrations of hPSCA-mFc were coated (1, 3 and 5 μg/mL in PBS, 100 μL/well) overnight, control wells were blocked with BSA. Presence of immobilized antigen was detected using goat anti-mouseFc-AP. […] No nonspecific binding to BSA coated wells was detected.

[2] = target: T1, human prostate stem cell antigen (PSCA) …; assay: flow cytometry titration on PSCA-expressing cells, apparent on-cell affinity (half-maximal binding)
Experimental: The capability of the anti-PSCA antibody fragments to bind to PSCA expressed on the cell surface was analyzed by flow cytometry. Antigen specificity was confirmed using PSCA-positive and negative cell lines. In this assay binding was only seen with 22Rv1-PSCA cells but not with 22Rv1 (FIG. 9A). […] Binding to murine cell lines transduced to express human PSCA and the human pancreatic cancer cell line Capan-1 was also confirmed using the A2scFv-Fc2 (FIG. 9C).

[3] = target: T2, recombinant human PSCA-mouseFc fusion …; assay: saturation binding ELISA on immobilized hPSCA-mFc (1 ug/mL), half-maximal binding, one-site specific binding fit, 3 experiments
Experimental: Western Blot was also used to test antigen specificity. Recombinant human PSCA mouse Fc fusion protein (UCLA) was blotted and anti-PSCA scFv-Fc variants were tested for binding. Specificity and affinity of antigen binding was further evaluated by performing saturation binding on immobilized antigen in ELISA. Specific binding was fitted using the “one site-specific binding” equation to determine the Kd (ligand concentration that binds half the antigen sites at equilibrium) and Bmax (maximum number of binding sites).
Saturation binding of the anti-PSCA scFv-Fc fragments was tested in ELISA in 3 independent experiments with duplicates. Binding of serial dilutions (1 μM-[…]) of A2scFv-Fc2 and A2scFv-Fc2DM to immobilized recombinant hPSCA-m Fc (1 μg/mL) was specific and dose-dependent (FIG. 6).

| Binder | binding result [1] | Kd [2] | Kd [3] |
| --- | --- | --- | --- |
| A2scFv-Fc2 (Fc fusion, Homodimer of two scFv-Fc peptides: anti-PSCA A2 VH-VL scFv with a (G4S)2-GGSAQ linker, truncated human IgG2 hinge and Fc; Made in FreeStyle 293-F cells, glycosylated at Asn-297; also called anti-PSCA scFv-Fc2) EVQLVESGGGLVQPGGSLRLSCAASGFNIKDYYIHWVRQAPGKGLEWVAWIDPEYGDSEFVPKFQGRATMSADTSKNTAYLQMNSLRAEDTAVYYCKTGGFWGRGTLVTVSSGGGGSGGGGSGGSAQDIQLTQSPSSLSASVGDRVTITCSASSSVRFIHWYQQKPGKAPKRLIYDTSKLASGVPSRFSGSGSGTDFTLTISSLQPEDFATYYCQQWGSSPFTFGQGTKVEIKVECPPCPAPPVAGPSVFLFPPKPKDTLMISRTPEVTCVVVDVSHEDPEVQFNWYVDGMEVHNAKTKPREEQFNSTFRVVSVLTVVHQDWLNGKEYKCKVSNKGLPAPIEKTISKTKGQPREPQVYTLPPSREEMTKNQVSLTCLVKGFYPSDIAVEWESNGQPENNYKTTPPMLDSDGSFFLYSKLTVDKSRWQQGNVFSCSVMHEALHNHYTQKSLSLSPGK | no binding | 1200 pM | 500 pM |
| A2scFv-Fc2DM (Fc fusion, Homodimer; also called A2scFv-FcDM; double mutant) EVQLVESGGGLVQPGGSLRLSCAASGFNIKDYYIHWVRQAPGKGLEWVAWIDPEYGDSEFVPKFQGRATMSADTSKNTAYLQMNSLRAEDTAVYYCKTGGFWGRGTLVTVSSGGGGSGGGGSGGSAQDIQLTQSPSSLSASVGDRVTITCSASSSVRFIHWYQQKPGKAPKRLIYDTSKLASGVPSRFSGSGSGTDFTLTISSLQPEDFATYYCQQWGSSPFTFGQGTKVEIKVECPPCPAPPVAGPSVFLFPPKPKDTLMISRTPEVTCVVVDVSHEDPEVQFNWYVDGMEVHNAKTKPREEQFNSTFRVVSVLTVVAQDWLNGKEYKCKVSNKGLPAPIEKTISKTKGQPREPQVYTLPPSREEMTKNQVSLTCLVKGFYPSDIAVEWESNGQPENNYKTTPPMLDSDGSFFLYSKLTVDKSRWQQGNVFSCSVMHEALHNQYTQKSLSLSPGK | no binding | 650 pM | 800 pM |

From US20230181772A1 (CITY OF HOPE, published 2023)
